Measurements as given in US20170298146A1 (MODIQUEST B V, published 2017).
Non-standard residues stand in square brackets, D forms with d. No end group written: not given here. Cit = NC(=O)NCCC[C@H](N)C(=O)O

Legend:
[1] = biological target: T1, huPAD2 deiminated human recombinant histone H2A (human); experiment: ELISA, 0.0032 ug/well
T1 construct: also called H2A/p2
Experimental: (§1) Deiminated, as well as non-deiminated histones, were immobilized on 96-well ELISA plates (0.3 μg/well). CFC-1 and CFC-0 were coated at the same concentration and served as positive and negative controls, respectively, for specific anti-citrulline reactivity and as coating controls. Non-coated wells were used to test for aspecific binding of the antibodies. […] Detection of bound anti-citrulline antibodies was performed by incubating the wells with rabbit-anti-human-HRP (1:2000) for one hour at RT followed by incubation with TMB substrate. The resulting OD (y-axis) is a measure for antibody binding. H1=recombinant histone 1; H1/p2=huPAD2 recombinant histone 1; H1/p4=huPAD4 recombinant histone 1 and so forth (x-axis).

[2] = biological target: T2, huPAD4 deiminated human recombinant histone H2A (human); experiment: ELISA, 0.0032 ug/well
T2 construct: also called H2A/p4; huPAD4 deiminated histone 2A
Experimental: as §1

[3] = biological target: T3, human recombinant histone H2B (human); experiment: ELISA, 0.0032 ug/well
T3 construct: Non-deiminated
Experimental: as §1

[4] = biological target: T4, huPAD2 deiminated human recombinant histone H2B (human); experiment: ELISA, 0.0032 ug/well
T4 construct: also called H2B/p2
Experimental: as §1

[5] = biological target: T5, huPAD4 deiminated human recombinant histone H2B (human); experiment: ELISA, 0.0032 ug/well
T5 construct: also called H2B/p4
Experimental: as §1

[6] = biological target: T6, huPAD2 deiminated human recombinant histone H3 (human); experiment: ELISA, 0.0032 ug/well
T6 construct: also called H3/p2
Experimental: as §1

[7] = biological target: T7, huPAD4 deiminated human recombinant histone H3 (human); experiment: ELISA, 0.0032 ug/well
T7 construct: also called H3/p4
Experimental: as §1

[8] = biological target: human recombinant histone H4 (human, UniProt P62805 2-103); experiment: ELISA, 0.0032 ug/well
Experimental: as §1

[9] = biological target: T8, CFC-1; experiment: ELISA, 0.0032 ug/well
T8 construct: Positive control for anti-citrulline reactivity; also called cfc1 XG
Experimental: as §1

[10] = biological target: T8, CFC-1; experiment: peptide ELISA, 0.4 ug/well
Experimental: (§2) Biotin and citrulline-containing peptides derived from histone 2A were immobilized on NEUTRAVIDIN®-coated 96-well ELISA plates (0.3 μg/well). CFC-1 and CFC-0 were coated at the same concentration and served as positive and negative controls respectively for specific anti-citrulline reactivity and as coating controls. Non-coated wells were used to test for aspecific binding of the antibodies. […] Detection of bound anti-citrulline antibodies was performed by incubating the wells with rabbit-anti-human-HRP (1:2000) for one hour at RT followed by incubation with TMB substrate. The resulting OD (y-axis) is a measure for antibody binding.
(§3) Ninety-six-well ELISA plates were coated with NEUTRAVIDIN® (0.1 μg/well) by overnight incubation at 4° C. Wells were washed five times with PBS-TWEEN®-20 (PBS-T) and blocked by a one-hour incubation with PBS-T+1% Bovine serum albumin (BSA) at room temperature (RT). After five more washes with PBS-T, wells were incubated for one hour at RT with histone-derived citrulline and biotin-containing peptides (0.3 μg/well). […] Wells were washed five times with PBS-T and incubated with rabbit-anti-human-HRP (1:2000) for one hour at RT followed by five washes with PBS-T and three wash steps with PBS. Wells were incubated for five minutes with TMB substrate before stopping the reaction with 2 M H₂SO₄. Optical density was measured by 450 nm and is a measure for the affinity of the antibodies used.

[11] = biological target: T9, Histone 2A citrulline-containing peptide 1 (human, also: biotin label); experiment: peptide ELISA, 0.4 ug/well
T9 construct: also called AAASGXGKQGGK
T9 peptide: AAASG[Cit]GKQGGK
Experimental: as §2, §3

[12] = biological target: T10, Histone 2A citrulline-containing peptide 2 (human, also: biotin label); experiment: peptide ELISA, 0.4 ug/well
T10 peptide: AKAKS[Cit]SSRAGL
Experimental: as §2, §3

[13] = biological target: T11, Histone 2A citrulline-containing peptide 3 (human, also: biotin label); experiment: peptide ELISA, 0.4 ug/well
T11 peptide: KSRSS[Cit]AGLQFP
Experimental: as §2, §3

[14] = biological target: T12, Histone 2A citrulline-containing peptide 4 (human, also: biotin label); experiment: peptide ELISA, 0.4 ug/well
T12 peptide: QFPVG[Cit]VHRLLR
Experimental: as §2, §3

[15] = biological target: T13, Histone 2A citrulline-containing peptide 5 (human, also: biotin label); experiment: peptide ELISA, 0.4 ug/well
T13 peptide: VGRVH[Cit]LLRKGN
Experimental: as §2, §3

[16] = biological target: T14, Histone 2A citrulline-containing peptide 6 (human, also: biotin label); experiment: peptide ELISA, 0.4 ug/well
T14 peptide: VHRLL[Cit]KGNYSE
Experimental: as §2, §3

[17] = biological target: T15, Histone 2A citrulline-containing peptide 8 (human, also: biotin label); experiment: peptide ELISA, 0.4 ug/well
T15 peptide: AGNAA[Cit]DNKKTR
Experimental: as §2, §3

[18] = biological target: T16, Histone 2A citrulline-containing peptide 9 (human, also: biotin label); experiment: peptide ELISA, 0.4 ug/well
T16 peptide: DNKKT[Cit]IIPRHL
Experimental: as §2, §3

[19] = biological target: T17, Histone 2A citrulline-containing peptide 10 (human, also: biotin label); experiment: peptide ELISA, 0.4 ug/well
T17 peptide: TRIIP[Cit]HLQLAI
Experimental: as §2, §3

[20] = biological target: T18, Histone 2A citrulline-containing peptide 12 (human, also: biotin label); experiment: peptide ELISA, 0.4 ug/well
T18 peptide: NKLLG[Cit]VTIAQG
Experimental: as §2, §3

[21] = biological target: T8, CFC-1; experiment: peptide ELISA, 0.016 ug/well
Experimental: as §2, §3

[22] = biological target: T11, Histone 2A citrulline-containing …; experiment: peptide ELISA, 0.016 ug/well
Experimental: as §2, §3

[23] = biological target: T12, Histone 2A citrulline-containing …; experiment: peptide ELISA, 0.016 ug/well
Experimental: as §2, §3

[24] = biological target: T14, Histone 2A citrulline-containing …; experiment: peptide ELISA, 0.016 ug/well
Experimental: as §2, §3

[25] = biological target: T19, Histone 2A citrulline-containing peptide 7 (human, also: biotin label); experiment: peptide ELISA, 0.016 ug/well
T19 peptide: GNYSE[Cit]VGAGAP
Experimental: as §2, §3

[26] = biological target: T17, Histone 2A citrulline-containing …; experiment: peptide ELISA, 0.016 ug/well
Experimental: as §2, §3

[27] = biological target: T20, Histone 2A citrulline-containing peptide 11 (human, also: biotin label); experiment: peptide ELISA, 0.016 ug/well
T20 peptide: LQLAI[Cit]NDEELN
Experimental: as §2, §3

[28] = biological target: T18, Histone 2A citrulline-containing …; experiment: peptide ELISA, 0.016 ug/well
Experimental: as §2, §3

B1: RhmAb2.102 (antibody, human IgG1, lambda)
heavy: not shown
light: QSVLTQPPSMSAAPGQKVTISCSGSSSNIGNNYVSWYQQVPGTAPKLLIYDDNKRPSGIPGRFSGSKSATSATLGITGLQAGDEADYYCGSWDDNLSVVLFGGGTKLTVLGQPKAAPSVTLFPPSSEELQANKATLVCLISDFYPGAVTVAWKADSSPVKAGVETTTPSKQSNNKYAASSYLSLTPEQWKSHRSYSCQVTHEGSTVEKTVAPTECS
notes: Human IgG1 lambda; also called Rhm2.102
- OD [1]: 0.161 OD
- OD [2]: 0.135 OD
- OD [3]: 0.05 OD
- OD [4]: 0.052 OD
- OD [5]: 0.052 OD
- OD [6]: 0.08 OD
- OD [7]: 0.065 OD
- OD [8]: 0.06 OD
- OD [9]: 0.178 OD
- OD [10]: 3.06 OD
- OD [11]: 2.8 OD
- OD [12]: 0.136 OD
- OD [13]: 0.154 OD
- OD [14]: 0.564 OD
- OD [15]: 0.082 OD
- OD [16]: 0.333 OD
- OD [17]: 0.061 OD
- OD [18]: 0.057 OD
- OD [19]: 0.051 OD
- OD [20]: 0.061 OD
- OD [21]: 1.46 OD
- OD [22]: 0.07 OD
- OD [23]: 0.084 OD
- OD [24]: 0.075 OD
- OD [25]: 0.061 OD
- OD [26]: 0.066 OD
- OD [27]: 0.069 OD
- OD [28]: 0.057 OD
